Experimental data: patent US20200325187A1 (Genentech, published 2020)
Read-outs that look alike come from different tables or passages of the source.

Assays:
hVEGF-A (8-109) [1] = target: T1, hVEGF-A (8-109) (human, UniProt P15692 214-315); assay: phage competition ELISA
T1 sequence (looked up): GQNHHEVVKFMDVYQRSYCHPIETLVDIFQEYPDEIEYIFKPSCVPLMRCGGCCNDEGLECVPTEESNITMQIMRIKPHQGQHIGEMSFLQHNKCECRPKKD

hVEGF-A (8-109) [2] = target: T1, hVEGF-A (8-109); assay: phage competition ELISA (clone on phage; the concentration varied on the axis is that of hVEGF (8-109))
LRP6 E1E2 protein = target: T2, LRP6 E1E2 protein (human, UniProt O75581 20-630, limits assumed); assay: spot phage ELISA
T2 construct: domain: E1E2
T2 sequence (looked up): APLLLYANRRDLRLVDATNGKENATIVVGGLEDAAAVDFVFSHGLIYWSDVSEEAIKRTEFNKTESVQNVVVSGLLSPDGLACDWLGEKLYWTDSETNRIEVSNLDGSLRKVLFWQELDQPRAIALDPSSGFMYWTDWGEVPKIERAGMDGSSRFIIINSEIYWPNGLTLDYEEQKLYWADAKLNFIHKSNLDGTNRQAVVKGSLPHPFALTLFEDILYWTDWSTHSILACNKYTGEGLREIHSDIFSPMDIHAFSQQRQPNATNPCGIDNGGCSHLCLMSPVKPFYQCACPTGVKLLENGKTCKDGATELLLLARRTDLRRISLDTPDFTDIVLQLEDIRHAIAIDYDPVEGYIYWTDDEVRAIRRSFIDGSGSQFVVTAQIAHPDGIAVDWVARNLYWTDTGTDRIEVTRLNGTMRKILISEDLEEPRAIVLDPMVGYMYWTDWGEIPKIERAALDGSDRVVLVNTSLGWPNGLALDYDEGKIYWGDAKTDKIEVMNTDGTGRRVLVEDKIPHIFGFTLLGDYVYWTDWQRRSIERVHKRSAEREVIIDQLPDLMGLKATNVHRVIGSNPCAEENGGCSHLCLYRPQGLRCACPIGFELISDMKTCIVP

LRP6 [3] = target: T3, LRP6 (human, UniProt O75581 20-1613); assay: cell-based or functional assay
LRP6 [4] = target: T3, LRP6; assay: cell-based or functional assay; remark: listed apart in the source
hVEGF-A [5] = target: T4, hVEGF-A (human, UniProt P15692-4 27-191, limits assumed)
hVEGF-A [6] = target: T4, hVEGF-A; assay: cell-based or functional assay
hVEGF-A [7] = target: T4, hVEGF-A; assay: SPR
Method: Depending on the format of the assay either a streptavidin sensor (SA) or a dextran-coated (CM5) sensor was utilized as described below.
Reaction was then quenched by addition of 10 molar excess of Glycine pH 8.0 and the sample was buffer exchanged into PBS using an Amicon 0.5 mL 3000 MWCO ultra-centrifugal filters (EMD Millipore). The biotinylation state of the protein was verified by LC-MS analysis. Biotinylated VEGF-A was then captured on the surface until a resonance unit (RU) signal of about ˜400. For immobilization of VEGF-A on CM5 sensor, the surface was first activated with a mixture of N-ethyl-N′-(3-dimethylaminopropyl)carbodiimide hydrochloride and N-hydroxysuccinimide (EDC/NHS) according to the supplier instructions. VEGF-A was then diluted into coupling buffer (0.1 M Acetate Buffer, pH 5.0) and injected until the signal reached about ˜400 RU followed by a wash with 1 M ethanolamine pH 8.0 to quench remaining activated sites.

hVEGF-A (8-109) [8] = target: T1, hVEGF-A (8-109); assay: spot phage ELISA
Method: (§1) After four rounds of binding selection, individual phage clones were picked and inoculated into 450 μl 2YT media containing 50 µg/ml Carbenecillin and M13-KO7 helper phage in 96-well blocks, which were grown at 37° C. overnight. […] The plates were washed and bound phage was detected with anti-M13-HRP followed by TMB substrate. In these assays, phage binding to BSA alone was tested in parallel to assess background binding. […] Positive clones were subjected to DNA sequence analysis.

hVEGF-A [9] = target: T4, hVEGF-A; assay: cell-based or functional assay; remark: listed apart in the source
hVEGF-A [10] = target: T4, hVEGF-A; assay: KDR-VEGF competition ELISA
hVEGF-A [11] = target: T4, hVEGF-A; assay: cell-based or functional assay; remark: listed apart in the source
hVEGF-A (8-109) [12] = target: T1, hVEGF-A (8-109); assay: spot phage ELISA; remark: listed apart in the source
Method: as §1

hVEGF-A (8-109) [13] = target: T1, hVEGF-A (8-109); assay: spot phage ELISA; remark: listed apart in the source
Method: as §1

hVEGF-A [14] = target: T4, hVEGF-A; assay: cell-based or functional assay; remark: listed apart in the source
hVEGF-A [15] = target: T4, hVEGF-A; assay: phage competition ELISA, soluble CKP
hVEGF-A [16] = target: T4, hVEGF-A; assay: phage competition ELISA, soluble CKP; remark: listed apart in the source

Binder: GCNIMLPFWGCKQDFDCLAGCICQYYQSCGFH (designed binder) [9.54-28]
- fold improvement in binding affinity compared to 9.54 (hVEGF-A (8-109) [1]): ~10 fold
- IC50 (read off the curve) (hVEGF-A (8-109) [2]): ~0.1 nM

Binder: GCSNRVKVRACKQDSDCLAGCVCGPNGFCG (designed binder) [LRP6_CKP19]
- ELISA (LRP6 E1E2 protein): 3.27
- S/N vs BSA (LRP6 E1E2 protein): 42
- Best Fit IC50 (nM) for Wnt1 (5 ng/well), luciferase reporter, fraction F1 (LRP6 [3]): 23100 nM
- Best Fit IC50 (nM) for Wnt1 (5 ng/well), luciferase reporter, fraction F2 (LRP6 [3]): 49300 nM
- Best Fit IC50 (nM) for Wnt3a (25 ng/well), luciferase reporter, fraction F1 (LRP6 [4]): 59300 nM
- Best Fit IC50 (nM) for Wnt3a (25 ng/well), luciferase reporter, fraction F2 (LRP6 [4]): 69800 nM

Binder: GCNIMLPFWGCGRDFECMEQCICQYYQSCG (designed binder) [VEGF_CKP9.54.90.67]
- IC50 (read off the curve) (hVEGF-A [5]): 12 to 20 nM
- Cellular IC50 (hVEGF-A [6]): 1.1 nM
- FOLD [..] [..] TO VARIANT 9.54.90 (hVEGF-A [6]): 1.23 fold

Binder: GCNIMLPFWGCGQSFECLAGCICQYYQSCGIA (designed binder) [9.54.1-2]
- fold improvement in binding affinity compared to 9.54.1 (hVEGF-A (8-109) [1]): ~10 fold

Binder: GCNIMLPFWGCGQSFECLAGCICQYYQSCGLS (designed binder) [9.54.1-42]
- fold improvement in binding affinity compared to 9.54.1 (hVEGF-A (8-109) [1]): ~10 fold
- IC50 (read off the curve) (hVEGF-A (8-109) [2]): ~0.08 nM

Binder: GCNIMLPFWGCGQSFECLAGCICQYYQSCGTR (designed binder) [9.54.1-36]
- fold improvement in binding affinity compared to 9.54.1 (hVEGF-A (8-109) [1]): ~10 fold
- IC50 (read off the curve) (hVEGF-A (8-109) [2]): ~0.06 nM

Binder: GCNIMLPFWGCGQSFECLAGCICQYYQSCGGS (designed binder) [9.54.1-63]
- fold improvement in binding affinity compared to 9.54.1 (hVEGF-A (8-109) [1]): ~10 fold

Binder: GCNIMLPFWGCGQSFECLAGCICQYYQSCGVH (designed binder) [9.54.1-90]
- fold improvement in binding affinity compared to 9.54.1 (hVEGF-A (8-109) [1]): ~10 fold
- IC50 (read off the curve) (hVEGF-A (8-109) [2]): ~0.08 nM

Binder: GCNIMLPFWGCGRDFECMSDCICQYYQSCG (designed binder) [VEGF_CKP9.54.90.12]
- IC50 (read off the curve) (hVEGF-A [5]): 30 nM
- Cellular IC50 (hVEGF-A [6]): 1.2 nM
- FOLD [..] [..] TO VARIANT 9.54.90 (hVEGF-A [6]): 1.12 fold

Binder: GCNIMLPFWGCGQSFECLAGCVCQYYQSCG (designed binder) [VEGF_CKP9.54.1]
- Kd (hVEGF-A [7]): 2.2 nM
- ELISA (hVEGF-A (8-109) [8]): 2.4
- S/N vs BSA (hVEGF-A (8-109) [8]): 29.9
- Cellular IC50 (hVEGF-A [9]): 1.47 nM
- IC50 (hVEGF-A [10]): 0.2 nM
- IC50 (read off the curve) (hVEGF-A (8-109) [2]): ~0.3 nM

Binder: GCNIMLPYWGCGRDFECLAGCVCQYYQSCG (designed binder) [VEGF_CKP9.54.90.F8Y]
- Kd (hVEGF-A [7]): 0.4 nM
- Cellular IC50 (hVEGF-A [11]): 1.58 nM
- FOLD [..] [..] TO VARIANT 9.54.90 (hVEGF-A [11]): 0.85 fold

Binder: GCRNSIKRCKQNSDCLAGCVCSVGHGCG (designed binder) [LRP6_CKP6]
- ELISA (LRP6 E1E2 protein): 3.1
- S/N vs BSA (LRP6 E1E2 protein): 37.4
- Best Fit IC50 (nM) for Wnt1 (5 ng/well), luciferase reporter, fraction F1 (LRP6 [3]): 22900 nM
- Best Fit IC50 (nM) for Wnt1 (5 ng/well), luciferase reporter, fraction F2 (LRP6 [3]): 23800 nM
- Best Fit IC50 (nM) for Wnt1 (5 ng/well), luciferase reporter, fraction F3 (LRP6 [3]): 4620 nM
- Best Fit IC50 (nM) for Wnt3a (25 ng/well), luciferase reporter, fraction F1 (LRP6 [4]): 350000 nM
- Best Fit IC50 (nM) for Wnt3a (25 ng/well), luciferase reporter, fraction F2 (LRP6 [4]): 276000 nM

Binder: GCNIMLPFWGCGRDFECMNQCICQYYQSCG (designed binder) [VEGF_CKP9.54.90.13]
- IC50 (read off the curve) (hVEGF-A [5]): 20 nM
- Cellular IC50 (hVEGF-A [6]): 0.96 nM
- FOLD [..] [..] TO VARIANT 9.54.90 (hVEGF-A [6]): 1.41 fold

Binder: GCNIMLPFWGCGRDFECFYECICQYYQSCG (designed binder) [VEGF_CKP9.54.90.62]
- IC50 (read off the curve) (hVEGF-A [5]): 20 nM
- Cellular IC50 (hVEGF-A [6]): 0.92 nM
- FOLD [..] [..] TO VARIANT 9.54.90 (hVEGF-A [6]): 1.47 fold

Binder: GCQLMQPFWGCKQDSDCLAGCVCHWYQSCG (designed binder, also called E9) [VEGF_CKP9]
- Kd (hVEGF-A [7]): 5000 nM
- ELISA (hVEGF-A (8-109) [8]): 3.3
- S/N vs BSA (hVEGF-A (8-109) [8]): 36
- ELISA (hVEGF-A (8-109) [12]): 0.4
- S/N vs BSA (hVEGF-A (8-109) [12]): 7.4
- ELISA (hVEGF-A (8-109) [13]): 0.4
- S/N vs BSA (hVEGF-A (8-109) [13]): 7.4
- Cellular IC50 (hVEGF-A [14]): 11700 nM
- Cellular IC50 (hVEGF-A [9]): 11700 nM
- IC50 (hVEGF-A [10]): 569 nM
- IC50 (hVEGF-A [15]): 600 nM
- IC50 (hVEGF-A [16]): 1360 nM

Binder: GCDVLQPFWGCKQDSDCLAGCVCHWYQSCG (designed binder) [VEGF_CKP9.2]
- ELISA (hVEGF-A (8-109) [13]): 2.4
- S/N vs BSA (hVEGF-A (8-109) [13]): 31.1
- Cellular IC50 (hVEGF-A [14]): 270 nM
- IC50 (hVEGF-A [16]): 168 nM
